Reference: US20180194839A1 (Novartis, published 2018)

T1: human IL-17A (construct not stated) (human, UniProt Q16552 24-155, limits assumed)
T1 construct: also called huIL-17A; human IL-17A biotin
T1 sequence: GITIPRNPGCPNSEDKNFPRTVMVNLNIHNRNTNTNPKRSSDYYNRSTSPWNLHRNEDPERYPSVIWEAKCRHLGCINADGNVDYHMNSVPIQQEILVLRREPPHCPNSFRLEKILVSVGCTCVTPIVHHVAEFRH


Columns and labels:
[1] = molecular target: T1, human IL-17A (construct not stated); assay: ELISA on coated huIL-17A, crude Fab extract, overnight with 200 nM XAB1 Fab as competitor
[2] = molecular target: T1, human IL-17A (construct not stated); assay: ELISA on coated huIL-17A, crude Fab extract, wash of at least 3 h
[3] = molecular target: T1, human IL-17A (construct not stated); assay: ELISA on coated huIL-17A, crude Fab extract
[4] = molecular target: T1, human IL-17A (construct not stated); assay: ELISA titration of purified Fab on plate-coated huIL-17A, normalized signal; x axis printed as log10 of Fab concentration (M)

Binder | Competition ELISA (normalized to XAB1 Fab) [1] | Off-rate ELISA (normalized to XAB1 Fab) [2] | Classic ELISA (normalized to XAB1 Fab) [3] | EC50 (read off the curve) [4] [nM]
MB454 (Fab, V domains shown, 32 stays A); heavy chain C-terminal Flag tag) VH: EVQLVESGGDLVQPGGSLRLSCAASGFTFSSYWMSWVRQAPGKGLEWVANIKQDGSEKYYVDSVKGRFTISRDNAKNSLYLQMNSLRAEDTAVYYCARDRGSLYYWGQGTLVTVSS VL: AIQLTQSPSSLSASVGDRVTITCRPSQGILWALAWYQQKPGKAPKLLIYDASSLENGVPSRFSGSGSGTDFTLTISSLQPEDFATYYCQQFNSYPLTFGGGTKVEIK | 36.6 ratio to XAB1 Fab | 34.2 ratio to XAB1 Fab | 2.9 ratio to XAB1 Fab | 
MB457 (Fab, V domains shown, 30 stays I); heavy chain C-terminal Flag tag) VH: EVQLVESGGDLVQPGGSLRLSCAASGFTFSSYWMSWVRQAPGKGLEWVANIKQDGSEKYYVDSVKGRFTISRDNAKNSLYLQMNSLRAEDTAVYYCARDRGSLYYWGQGTLVTVSS VL: AIQLTQSPSSLSASVGDRVTITCRPSQGIIWSLAWYQQKPGKAPKLLIYDASSLENGVPSRFSGSGSGTDFTLTISSLQPEDFATYYCQQFNSYPLTFGGGTKVEIK | 41 ratio to XAB1 Fab | 34.7 ratio to XAB1 Fab | 2.7 ratio to XAB1 Fab | 
MB491 (Fab, V domains shown, heavy chain C-terminal Flag tag) VH: EVQLVESGGDLVQPGGSLRLSCAASGFTFSSYWMSWVRQAPGKGLEWVANIKQDGSEKYYVDSVKGRFTISRDNAKNSLYLQMNSLRAEDTAVYYCARDRGSLYYWGQGTLVTVSS VL: AIQLTQSPSSLSASVGDRVTITCRPSQGIFFWLAWYQQKPGKAPKLLIYDASSLENGVPSRFSGSGSGTDFTLTISSLQPEDFATYYCQQFNSYPLTFGGGTKVEIK | 44.2 ratio to XAB1 Fab | 43 ratio to XAB1 Fab | 2.1 ratio to XAB1 Fab | 
MB432 (Fab, V domains shown, 32 stays A); heavy chain C-terminal Flag tag) VH: EVQLVESGGDLVQPGGSLRLSCAASGFTFSSYWMSWVRQAPGKGLEWVANIKQDGSEKYYVDSVKGRFTISRDNAKNSLYLQMNSLRAEDTAVYYCARDRGSLYYWGQGTLVTVSS VL: AIQLTQSPSSLSASVGDRVTITCRPSQGILFALAWYQQKPGKAPKLLIYDASSLENGVPSRFSGSGSGTDFTLTISSLQPEDFATYYCQQFNSYPLTFGGGTKVEIK | 37.3 ratio to XAB1 Fab | 44.2 ratio to XAB1 Fab | 2.3 ratio to XAB1 Fab | 
MB483 (Fab, V domains shown, heavy chain C-terminal Flag tag) VH: EVQLVESGGDLVQPGGSLRLSCAASGFTFSSYWMSWVRQAPGKGLEWVANIKQDGSEKYYVDSVKGRFTISRDNAKNSLYLQMNSLRAEDTAVYYCARDRGSLYYWGQGTLVTVSS VL: AIQLTQSPSSLSASVGDRVTITCRPSQGIFWTLAWYQQKPGKAPKLLIYDASSLENGVPSRFSGSGSGTDFTLTISSLQPEDFATYYCQQFNSYPLTFGGGTKVEIK | 45.2 ratio to XAB1 Fab | 47.1 ratio to XAB1 Fab | 3.1 ratio to XAB1 Fab | 
MB434 (Fab, V domains shown, heavy chain C-terminal Flag tag) VH: EVQLVESGGDLVQPGGSLRLSCAASGFTFSSYWMSWVRQAPGKGLEWVANIKQDGSEKYYVDSVKGRFTISRDNAKNSLYLQMNSLRAEDTAVYYCARDRGSLYYWGQGTLVTVSS VL: AIQLTQSPSSLSASVGDRVTITCRPSQGIWWYLAWYQQKPGKAPKLLIYDASSLENGVPSRFSGSGSGTDFTLTISSLQPEDFATYYCQQFNSYPLTFGGGTKVEIK | 39.5 ratio to XAB1 Fab | 44.4 ratio to XAB1 Fab | 2.4 ratio to XAB1 Fab | 
MB433 (Fab, V domains shown, heavy chain C-terminal Flag tag) VH: EVQLVESGGDLVQPGGSLRLSCAASGFTFSSYWMSWVRQAPGKGLEWVANIKQDGSEKYYVDSVKGRFTISRDNAKNSLYLQMNSLRAEDTAVYYCARDRGSLYYWGQGTLVTVSS VL: AIQLTQSPSSLSASVGDRVTITCRPSQGIYWGLAWYQQKPGKAPKLLIYDASSLENGVPSRFSGSGSGTDFTLTISSLQPEDFATYYCQQFNSYPLTFGGGTKVEIK | 29.3 ratio to XAB1 Fab | 39.7 ratio to XAB1 Fab | 2.3 ratio to XAB1 Fab | 
MB435 (Fab, V domains shown, heavy chain C-terminal Flag tag) VH: EVQLVESGGDLVQPGGSLRLSCAASGFTFSSYWMSWVRQAPGKGLEWVANIKQDGSEKYYVDSVKGRFTISRDNAKNSLYLQMNSLRAEDTAVYYCARDRGSLYYWGQGTLVTVSS VL: AIQLTQSPSSLSASVGDRVTITCRPSQGINWELAWYQQKPGKAPKLLIYDASSLENGVPSRFSGSGSGTDFTLTISSLQPEDFATYYCQQFNSYPLTFGGGTKVEIK | 44.6 ratio to XAB1 Fab | 44.7 ratio to XAB1 Fab | 2.7 ratio to XAB1 Fab | ~2
MB456 (Fab, V domains shown, heavy chain C-terminal Flag tag) VH: EVQLVESGGDLVQPGGSLRLSCAASGFTFSSYWMSWVRQAPGKGLEWVANIKQDGSEKYYVDSVKGRFTISRDNAKNSLYLQMNSLRAEDTAVYYCARDRGSLYYWGQGTLVTVSS VL: AIQLTQSPSSLSASVGDRVTITCRPSQGILWHLAWYQQKPGKAPKLLIYDASSLENGVPSRFSGSGSGTDFTLTISSLQPEDFATYYCQQFNSYPLTFGGGTKVEIK | 46.7 ratio to XAB1 Fab | 45.1 ratio to XAB1 Fab | 2.4 ratio to XAB1 Fab | 
MB438 (Fab, V domains shown, 32 stays A); heavy chain C-terminal Flag tag) VH: EVQLVESGGDLVQPGGSLRLSCAASGFTFSSYWMSWVRQAPGKGLEWVANIKQDGSEKYYVDSVKGRFTISRDNAKNSLYLQMNSLRAEDTAVYYCARDRGSLYYWGQGTLVTVSS VL: AIQLTQSPSSLSASVGDRVTITCRPSQGIPYALAWYQQKPGKAPKLLIYDASSLENGVPSRFSGSGSGTDFTLTISSLQPEDFATYYCQQFNSYPLTFGGGTKVEIK | 41.1 ratio to XAB1 Fab | 41.5 ratio to XAB1 Fab | 2.7 ratio to XAB1 Fab | 
MB450 (Fab, V domains shown, heavy chain C-terminal Flag tag) VH: EVQLVESGGDLVQPGGSLRLSCAASGFTFSSYWMSWVRQAPGKGLEWVANIKQDGSEKYYVDSVKGRFTISRDNAKNSLYLQMNSLRAEDTAVYYCARDRGSLYYWGQGTLVTVSS VL: AIQLTQSPSSLSASVGDRVTITCRPSQGIMWWLAWYQQKPGKAPKLLIYDASSLENGVPSRFSGSGSGTDFTLTISSLQPEDFATYYCQQFNSYPLTFGGGTKVEIK | 53.3 ratio to XAB1 Fab | 41.5 ratio to XAB1 Fab | 2.9 ratio to XAB1 Fab | 
MB448 (Fab, V domains shown, heavy chain C-terminal Flag tag) VH: EVQLVESGGDLVQPGGSLRLSCAASGFTFSSYWMSWVRQAPGKGLEWVANIKQDGSEKYYVDSVKGRFTISRDNAKNSLYLQMNSLRAEDTAVYYCARDRGSLYYWGQGTLVTVSS VL: AIQLTQSPSSLSASVGDRVTITCRPSQGIVWMLAWYQQKPGKAPKLLIYDASSLENGVPSRFSGSGSGTDFTLTISSLQPEDFATYYCQQFNSYPLTFGGGTKVEIK | 51.5 ratio to XAB1 Fab | 40.4 ratio to XAB1 Fab | 2.9 ratio to XAB1 Fab | 
MB486 (Fab, V domains shown, heavy chain C-terminal Flag tag) VH: EVQLVESGGDLVQPGGSLRLSCAASGFTFSSYWMSWVRQAPGKGLEWVANIKQDGSEKYYVDSVKGRFTISRDNAKNSLYLQMNSLRAEDTAVYYCARDRGSLYYWGQGTLVTVSS VL: AIQLTQSPSSLSASVGDRVTITCRPSQGIWWMLAWYQQKPGKAPKLLIYDASSLENGVPSRFSGSGSGTDFTLTISSLQPEDFATYYCQQFNSYPLTFGGGTKVEIK | 64.9 ratio to XAB1 Fab | 58.5 ratio to XAB1 Fab | 1.9 ratio to XAB1 Fab | 
MB447 (Fab, V domains shown, heavy chain C-terminal Flag tag) VH: EVQLVESGGDLVQPGGSLRLSCAASGFTFSSYWMSWVRQAPGKGLEWVANIKQDGSEKYYVDSVKGRFTISRDNAKNSLYLQMNSLRAEDTAVYYCARDRGSLYYWGQGTLVTVSS VL: AIQLTQSPSSLSASVGDRVTITCRPSQGIFWWLAWYQQKPGKAPKLLIYDASSLENGVPSRFSGSGSGTDFTLTISSLQPEDFATYYCQQFNSYPLTFGGGTKVEIK | 57 ratio to XAB1 Fab | 45.5 ratio to XAB1 Fab | 3 ratio to XAB1 Fab | 
MB458 (Fab, V domains shown, heavy chain C-terminal Flag tag) VH: EVQLVESGGDLVQPGGSLRLSCAASGFTFSSYWMSWVRQAPGKGLEWVANIKQDGSEKYYVDSVKGRFTISRDNAKNSLYLQMNSLRAEDTAVYYCARDRGSLYYWGQGTLVTVSS VL: AIQLTQSPSSLSASVGDRVTITCRPSQGIWYQLAWYQQKPGKAPKLLIYDASSLENGVPSRFSGSGSGTDFTLTISSLQPEDFATYYCQQFNSYPLTFGGGTKVEIK | 42.1 ratio to XAB1 Fab | 33 ratio to XAB1 Fab | 2.7 ratio to XAB1 Fab | 
MB461 (Fab, V domains shown, heavy chain C-terminal Flag tag) VH: EVQLVESGGDLVQPGGSLRLSCAASGFTFSSYWMSWVRQAPGKGLEWVANIKQDGSEKYYVDSVKGRFTISRDNAKNSLYLQMNSLRAEDTAVYYCARDRGSLYYWGQGTLVTVSS VL: AIQLTQSPSSLSASVGDRVTITCRPSQGIYWTLAWYQQKPGKAPKLLIYDASSLENGVPSRFSGSGSGTDFTLTISSLQPEDFATYYCQQFNSYPLTFGGGTKVEIK | 62.8 ratio to XAB1 Fab | 49.8 ratio to XAB1 Fab | 2.9 ratio to XAB1 Fab | 
MB453 (Fab, V domains shown, heavy chain C-terminal Flag tag) VH: EVQLVESGGDLVQPGGSLRLSCAASGFTFSSYWMSWVRQAPGKGLEWVANIKQDGSEKYYVDSVKGRFTISRDNAKNSLYLQMNSLRAEDTAVYYCARDRGSLYYWGQGTLVTVSS VL: AIQLTQSPSSLSASVGDRVTITCRPSQGIVFWLAWYQQKPGKAPKLLIYDASSLENGVPSRFSGSGSGTDFTLTISSLQPEDFATYYCQQFNSYPLTFGGGTKVEIK | 46.4 ratio to XAB1 Fab | 43.3 ratio to XAB1 Fab | 2.7 ratio to XAB1 Fab | 
